Data set [1] has as its target Purified Fe-hydrogenase HydA of Scenedesmus obliquus (native enzyme) (Scenedesmus obliquus). Kind of data set: cell-based or functional assay.
For data set [2], the target named is ferredoxin (source not stated, Table I).

Chain of Purified Fe-hydrogenase HydA of Scenedesmus obliquus (native enzyme) (Scenedesmus obliquus) (chain, as listed by the source): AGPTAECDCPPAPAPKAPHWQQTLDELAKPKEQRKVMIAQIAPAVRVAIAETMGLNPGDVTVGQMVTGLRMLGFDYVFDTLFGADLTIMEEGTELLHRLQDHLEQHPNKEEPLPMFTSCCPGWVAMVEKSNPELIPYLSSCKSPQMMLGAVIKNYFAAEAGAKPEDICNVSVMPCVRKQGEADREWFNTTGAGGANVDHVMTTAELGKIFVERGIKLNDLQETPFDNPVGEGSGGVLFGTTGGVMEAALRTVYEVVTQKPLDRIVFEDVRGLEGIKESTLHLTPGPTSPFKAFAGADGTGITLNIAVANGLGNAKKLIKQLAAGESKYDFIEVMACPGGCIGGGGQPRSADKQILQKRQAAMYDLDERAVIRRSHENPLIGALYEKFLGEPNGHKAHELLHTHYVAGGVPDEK

With “Ferredoxin (PetF) of Chlamydomonas reinhardtii (from UniProt P07839 33-126)”, in data set [1], the H2-evolving activity (in vitro, dithionite as reducing reagent) was found to be 390 U/mg protein.
In data set [1], “Spinach ferredoxin (PetF) (from UniProt P00221 51-147)” registered an H2-evolving activity (in vitro, dithionite as reducing reagent) of 350 U/mg protein.
Same read-out and setting: under “Ferredoxin (PetF) of Scenedesmus obliquus” stands 420 U/mg protein.

B1: Fe-hydrogenase HydA of Chlamydomonas reinhardtii (native mature enzyme) (protein)
chain: AAPAAEAPLSHVQQALAELAKPKDDPTRKHVCVQVAPAVRVAIAETLGLAPGATTPKQLAEGLRRLGFDEVFDTLFGADLTIMEEGSELLHRLTEHLEAHPHSDEPLPMFTSCCPGWIAMLEKSYPDLIPYVSSCKSPQMMLAAMVKSYLAEKKGIAPKDMVMVSIMPCTRKQSEADRDWFCVDADPTLRQLDHVITTVELGNIFKERGINLAELPEGEWDNPMGVGSGAGVLFGTTGGVMEAALRTAYELFTGTPLPRLSLSEVRGMDGIKETNITMVPAPGSKFEELLKHRAAARAEAAAHGTPGPLAWDGGAGFTSEDGRGGITLRVAVANGLGNAKKLITKMQAGEAKYDFVEIMACPAGCVGGGGQPRSTDKAITQKRQAALYNLDEKSTLRRSHENPSIRELYDTYLGEPLGHKAHELLHTHYVAGGVEEKDEKK
Take B1: the “KM value (ferredoxin)” value in data set [2] is listed as 35 µM.

Values taken from patent US20060084157A1.
